One data set deals with T1, MKbur (Methanococcoides burtonii, UniProt Q12TI0).
T1 construct: gene mvk
Kind of data set: residual activity, coupled assay. It is filed as biochemical. The following applies: 1.5 mM mevalonate, 3 mM ATP.

The next data set deals with T2, MKvar (Ramazzottius varieornatus, UniProt A0A1D1VW28).
T2 construct: gene RvY_15762-1
T2 sequence (A0A1D1VW28 1-405): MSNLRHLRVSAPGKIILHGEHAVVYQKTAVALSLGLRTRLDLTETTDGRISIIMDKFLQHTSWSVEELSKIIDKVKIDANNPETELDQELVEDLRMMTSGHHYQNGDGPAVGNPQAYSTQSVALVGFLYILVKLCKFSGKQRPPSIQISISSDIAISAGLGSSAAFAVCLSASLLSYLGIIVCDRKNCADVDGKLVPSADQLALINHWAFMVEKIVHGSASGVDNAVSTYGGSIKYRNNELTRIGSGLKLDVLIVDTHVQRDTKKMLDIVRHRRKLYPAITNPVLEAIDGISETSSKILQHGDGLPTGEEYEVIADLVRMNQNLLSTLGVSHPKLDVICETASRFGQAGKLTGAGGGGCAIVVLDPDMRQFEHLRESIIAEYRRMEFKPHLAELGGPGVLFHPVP
Kind of data set: residual activity, coupled assay. It is filed as biochemical.

The target of another data set is T3, MKmaz (Methanosarcina mazei, UniProt Q8PW39).
T3 construct: gene mvk
T3 sequence (Q8PW39 1-301): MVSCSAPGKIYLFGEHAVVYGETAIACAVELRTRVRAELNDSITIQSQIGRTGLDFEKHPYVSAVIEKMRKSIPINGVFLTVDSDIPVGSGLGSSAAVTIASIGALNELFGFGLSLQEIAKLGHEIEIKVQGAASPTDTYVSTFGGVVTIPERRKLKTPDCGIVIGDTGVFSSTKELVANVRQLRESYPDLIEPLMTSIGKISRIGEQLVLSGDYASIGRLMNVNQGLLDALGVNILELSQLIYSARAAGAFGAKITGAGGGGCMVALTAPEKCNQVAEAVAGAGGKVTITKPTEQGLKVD
As to the kind of experiment: residual activity, coupled assay. In kind it is biochemical.

Substrate in data set [1]: Nc1ncnc2c1ncn2[C@@H]1O[C@H](COP(=O)(O)OP(=O)(O)OP(=O)(O)O)[C@@H](O)[C@H]1O
As to the kind of experiment: purified protein. The settings on record: 5 mM (RS)-mevalonate, Mg2+ 10 mM, 25 °C.

Substrate in data set [2]: CC(O)(CCO)CC(=O)O
As to the kind of experiment: purified protein. The following applies: 5 mM ATP, Mg2+ 10 mM, 25 °C, racemic mevalonate.

Bounds are passed on as bounds.

In the case of `CC(C)=CCC/C(C)=C/CC/C(C)=C/COP(=O)(O)OP(=O)(O)O` [farnesyl pyrophosphate], the “% residual activity at 100 μM” value at MKbur was “MKbur, like MKmaz, appears to be less sensitive to inhibition”. For the same molecule, the remaining activity (in general, the signal under treatment as a percentage of the control signal) at 100 µM at MKvar was 0.4%; at MKmaz it was 70%.
For the molecule `CC(C)=CCC/C(C)=C/COP(=O)(O)OP(=O)(O)O` [geranyl pyrophosphate], on MKbur, the “% residual activity at 100 μM” value is recorded as “MKbur, like MKmaz, appears to be less sensitive to inhibition”. In addition, the results for the remaining activity at 100 µM at MKvar and on MKmaz were less than 20% and 92%, respectively.

B1: MKvar (Ramazzottius varieornatus) (protein)
chain: MSNLRHLRVSAPGKIILHGEHAVVYQKTAVALSLGLRTRLDLTETTDGRISIIMDKFLQHTSWSVEELSKIIDKVKIDANNPETELDQELVEDLRMMTSGHHYQNGDGPAVGNPQAYSTQSVALVGFLYILVKLCKFSGKQRPPSIQISISSDIAISAGLGSSAAFAVCLSASLLSYLGIIVCDRKNCADVDGKLVPSADQLALINHWAFMVEKIVHGSASGVDNAVSTYGGSIKYRNNELTRIGSGLKLDVLIVDTHVQRDTKKMLDIVRHRRKLYPAITNPVLEAIDGISETSSKILQHGDGLPTGEEYEVIADLVRMNQNLLSTLGVSHPKLDVICETASRFGQAGKLTGAGGGGCAIVVLDPDMRQFEHLRESIIAEYRRMEFKPHLAELGGPGVLFHPVP
In the case of B1, in “purified protein [1]”, the Km (in general, the concentration of substrate that gives half-maximal velocity) was determined as 4844 ± 1413 µM. Further, in the data set “purified protein [2]”, the Km came out at 237 ± 68 µM; the kcat – broadly, the maximal rate divided by the concentration of active sites – came out at 5 ± 0.8 s⁻¹; the kcat/Km (as a rule, the turnover number divided by the Michaelis constant) turned out to be 21000 M⁻¹ s⁻¹.

B2: MKbur (Methanococcoides burtonii DSM 6242) (protein)
chain: MITCSAPGKVYLFGEHAVVYGEPAICCAVDIRTRVTVSPADTITISSSLGTTGIDFEVHPYVSAVLERFQDISSFDGVDLRISSDIPVGSGLGSSAAVTVATIKAMDTLLDLGLELDDIAKMGHEVEQNIQGTASPTDTYVCTMGGVVLIPQRKKLELIDCGILIGNTNIFSSTKELVGNVADLNERFPDVVGPVLSSIGKLSVIGEGLVNDRDYVSVGELMNIDQGLLDAIGVSCAELSSLIYAARESGAYGSKITGAGGGGCMVAISPRENVDSVAEAIGMAGGKVVVANATDIGVRVECQ
Take B2: the Km in “purified protein [1]” was determined as 331 ± 63 µM. Further, in “purified protein [2]”, the Km is reported as 55 ± 11 µM, the kcat worked out at 5 s⁻¹ and the kcat/Km is 90000 M⁻¹ s⁻¹.

B3: MKmaz (Methanosarcina mazei Go1) (protein)
chain: MVSCSAPGKIYLFGEHAVVYGETAIACAVELRTRVRAELNDSITIQSQIGRTGLDFEKHPYVSAVIEKMRKSIPINGVFLTVDSDIPVGSGLGSSAAVTIASIGALNELFGFGLSLQEIAKLGHEIEIKVQGAASPTDTYVSTFGGVVTIPERRKLKTPDCGIVIGDTGVFSSTKELVANVRQLRESYPDLIEPLMTSIGKISRIGEQLVLSGDYASIGRLMNVNQGLLDALGVNILELSQLIYSARAAGAFGAKITGAGGGGCMVALTAPEKCNQVAEAVAGAGGKVTITKPTEQGLKVD
Turning to B3, in the data set “purified protein [1]”, the Km is 511 ± 48 µM. Also, in the data set “purified protein [2]”, the Km came to 123 ± 9 µM, the kcat is 10 s⁻¹ and the kcat/Km turned out to be 81000 M⁻¹ s⁻¹.

The values are drawn from article PMC10910542 (Acta Crystallographica. Section D, Structural Biology, 2024).
